According to US20260308264 (published 2026):

T1: IL-5Rα (human, UniProt Q01344)
T1 chain: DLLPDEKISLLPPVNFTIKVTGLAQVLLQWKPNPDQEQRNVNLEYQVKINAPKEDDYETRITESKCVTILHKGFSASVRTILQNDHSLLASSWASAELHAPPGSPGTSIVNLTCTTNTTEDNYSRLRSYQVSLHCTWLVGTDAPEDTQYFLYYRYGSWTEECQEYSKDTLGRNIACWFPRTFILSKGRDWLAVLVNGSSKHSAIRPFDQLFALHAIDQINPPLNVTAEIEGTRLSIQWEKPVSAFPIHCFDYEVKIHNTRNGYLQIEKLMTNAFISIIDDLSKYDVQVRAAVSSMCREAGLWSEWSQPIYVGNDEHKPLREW

B1: IL-5Rα×CD3ε BiTE(L)/scFv-Fc (IL-5Rα arm) (antibody, V domains shown)
VH: QVQLVQSGAEVKKPGSSVKVSCKASGYTFTSYWINWVRQAPGQGLEWIGHIYPNKNENYYNHKFKDKATLTVDKSTNTAYMELSSLRSEDTAVYYCTREFYGRQYYQAMDYWGQGTTLTVSS
VL: DIQMTQSPSTLSASVGDRVTITCKASQNVGTAVAWYQQKPGKAPKLLIYWASTRHTGVPDRFSGSGSGTDFTLTISSLQPDDFATYYCQQFGRYPYTFGSGTKVEVK
B2: IL-5Rα×CD3ε Diabody-Fc (IL-5Rα arm) (antibody, V domains shown)
VH: QVQLVQSGAEVKKPGSSVKVSCKASGYTFTSYWINWVRQAPGQGLEWIGHIYPNKNENYYNHKFKDKATLTVDKSTNTAYMELSSLRSEDTAVYYCTREFYGRQYYQAMDYWGQGTTLTVSS
VL: DIQMTQSPSTLSASVGDRVTITCKASQNVGTAVAWYQQKPGKAPKLLIYWASTRHTGVPDRFSGSGSGTDFTLTISSLQPDDFATYYCQQFGRYPYTFGSGTKVEVK
B3: IL-5Rα×CD3ε IgG analog (IL-5Rα arm) (antibody, V domains shown)
VH: QVQLVQSGAEVKKPGSSVKVSCKASGYTFTSYWINWVRQAPGQGLEWIGHIYPNKNENYYNHKFKDKATLTVDKSTNTAYMELSSLRSEDTAVYYCTREFYGRQYYQAMDYWGQGTTLTVSS
VL: DIQMTQSPSTLSASVGDRVTITCKASQNVGTAVAWYQQKPGKAPKLLIYWASTRHTGVPDRFSGSGSGTDFTLTISSLQPDDFATYYCQQFGRYPYTFGSGTKVEVK
B4: IL-5Rα×CD3ε scFv(L)/scFv-Fc (IL-5Rα arm) (antibody, V domains shown)
VH: QVQLVQSGAEVKKPGSSVKVSCKASGYTFTSYWINWVRQAPGQGLEWIGHIYPNKNENYYNHKFKDKATLTVDKSTNTAYMELSSLRSEDTAVYYCTREFYGRQYYQAMDYWGQGTTLTVSS
VL: DIQMTQSPSTLSASVGDRVTITCKASQNVGTAVAWYQQKPGKAPKLLIYWASTRHTGVPDRFSGSGSGTDFTLTISSLQPDDFATYYCQQFGRYPYTFGSGTKVEVK
B5: IL-5Rα×CD3ε scFv(L)/scFv-Fc (CD3ε arm) (antibody, V domains shown)
VH: EVQLVESGGGLVQPKGSLKLSCAASGFTFNTYAMNWVRQAPGKGLEWVARIRSKYNNYATYYADSVKDRFTISRDDSQSILYLQMNNLKTEDTAMYYCVRHGNFGNSYVSWFAYWGQGTLVTVSS
VL: QAVVTQESALTTSPGETVTLTCRSSTGAVTTSNYANWVQEKPDHLFTGLIGGTNKRAPGVPARFSGSLIGDKAALTITGAQTEDEAIYFCALWYSNLWVFGGGTKLTVL
B6: IL-5Rα×CD3ε BiTE(L)/scFv-Fc (CD3ε arm) (antibody, V domains shown)
VH: EVQLVESGGGLVQPKGSLKLSCAASGFTFNTYAMNWVRQAPGKGLEWVARIRSKYNNYATYYADSVKDRFTISRDDSQSILYLQMNNLKTEDTAMYYCVRHGNFGNSYVSWFAYWGQGTLVTVSS
VL: QAVVTQESALTTSPGETVTLTCRSSTGAVTTSNYANWVQEKPDHLFTGLIGGTNKRAPGVPARFSGSLIGDKAALTITGAQTEDEAIYFCALWYSNLWVFGGGTKLTVL
B7: IL-5Rα×CD3ε IgG analog (CD3ε arm) (antibody, V domains shown)
VH: EVQLVESGGGLVQPKGSLKLSCAASGFTFNTYAMNWVRQAPGKGLEWVARIRSKYNNYATYYADSVKDRFTISRDDSQSILYLQMNNLKTEDTAMYYCVRHGNFGNSYVSWFAYWGQGTLVTVSS
VL: QAVVTQESALTTSPGETVTLTCRSSTGAVTTSNYANWVQEKPDHLFTGLIGGTNKRAPGVPARFSGSLIGDKAALTITGAQTEDEAIYFCALWYSNLWVFGGGTKLTVL
B8: IL-5Rα×CD3ε Diabody-Fc (CD3ε arm) (antibody, V domains shown)
VH: EVQLVESGGGLVQPKGSLKLSCAASGFTFNTYAMNWVRQAPGKGLEWVARIRSKYNNYATYYADSVKDRFTISRDDSQSILYLQMNNLKTEDTAMYYCVRHGNFGNSYVSWFAYWGQGTLVTVSS
VL: QAVVTQESALTTSPGETVTLTCRSSTGAVTTSNYANWVQEKPDHLFTGLIGGTNKRAPGVPARFSGSLIGDKAALTITGAQTEDEAIYFCALWYSNLWVFGGGTKLTVL
B9: Benralizumab (antibody, V domains shown)
VH: EVQLVQSGAEVKKPGASVKVSCKASGYTFTSYVIHWVRQRPGQGLAWMGYINPYNDGTKYNERFKGKVTITSDRSTSTVYMELSSLRSEDTAVYLCGREGIRYYGLLGDYWGQGTLVTVSS
VL: DIQMTQSPSSLSASVGDRVTITCGTSEDIINYLNWYQQKPGKAPKLLIYHTSRLQSGVPSRFSGSGSGTDFTLTISSLQPEDFATYYCQQGYTLPYTFGQGTKVEIK
B10: 5R65 (antibody, V domains shown)
VH: QVQLVQSGAEVKKPGSSVKVSCKASGYTFTSYWINWVRQAPGQGLEWIGHIYPNKNENYYNHKFKDKATLTVDKSTNTAYMELSSLRSEDTAVYYCTRDYYGRSYYYAMDYWGQGTTLTVSS
VL: DIQMTQSPSTLSASVGDRVTITCKASQNVGTAVAWYQQKPGKAPKLLIYWASTRHTGVPDRFSGSGSGTDFTLTISSLQPDDFATYYCQQFGRYPYTFGSGTKVEVK
B11: 5R65.7 (antibody, V domains shown)
VH: QVQLVQSGAEVKKPGSSVKVSCKASGYTFTSYWINWVRQAPGQGLEWIGHIYPNKNENYYNHKFKDKATLTVDKSTNTAYMELSSLRSEDTAVYYCTREFYGRQYYQAMDYWGQGTTLTVSS
VL: DIQMTQSPSTLSASVGDRVTITCKASQNVGTAVAWYQQKPGKAPKLLIYWASTRHTGVPDRFSGSGSGTDFTLTISSLQPDDFATYYCQQFGRYPYTFGSGTKVEVK

Molecular target: T1, IL-5Rα
Assay: BLI

Going from B1 to B2, the Kd rises from 22.9 nM to 123 nM (5.4-fold).

Compared with B3, B4 is 2-fold higher in Kd: 30.5 nM for the first, 59.8 nM for the second.

molecular target: CD3ε (human, UniProt P07766); assay: BLI
Sequence (P07766 23-207): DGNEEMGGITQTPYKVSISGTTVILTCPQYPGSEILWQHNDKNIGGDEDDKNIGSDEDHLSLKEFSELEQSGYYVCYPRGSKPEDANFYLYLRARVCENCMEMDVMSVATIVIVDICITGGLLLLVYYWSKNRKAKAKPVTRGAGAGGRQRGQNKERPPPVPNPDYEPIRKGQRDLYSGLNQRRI

B5 and B6 are within 1.5-fold of each other in Kd: 3.61 nM for the first, 4.62 nM for the second.

Compared with B7, B8 is 4.9-fold higher in Kd: 1.71 nM for the first, 8.41 nM for the second. The first binds more tightly here.

Molecular target: T1, IL-5Rα
Assay: not given

Compared with B9, B10 is 1.8-fold lower in Kd: 26.8 nM for the first, 14.5 nM for the second. The second binds more tightly here.

With B11 the Kd was 4.64 nM.
